Values quoted from earlier work, collected in article PMC7109175.

Target: cMyBP-C (Mus musculus) (UniProt O70468)
UniProt O70468, sequence (O70468 whole entry): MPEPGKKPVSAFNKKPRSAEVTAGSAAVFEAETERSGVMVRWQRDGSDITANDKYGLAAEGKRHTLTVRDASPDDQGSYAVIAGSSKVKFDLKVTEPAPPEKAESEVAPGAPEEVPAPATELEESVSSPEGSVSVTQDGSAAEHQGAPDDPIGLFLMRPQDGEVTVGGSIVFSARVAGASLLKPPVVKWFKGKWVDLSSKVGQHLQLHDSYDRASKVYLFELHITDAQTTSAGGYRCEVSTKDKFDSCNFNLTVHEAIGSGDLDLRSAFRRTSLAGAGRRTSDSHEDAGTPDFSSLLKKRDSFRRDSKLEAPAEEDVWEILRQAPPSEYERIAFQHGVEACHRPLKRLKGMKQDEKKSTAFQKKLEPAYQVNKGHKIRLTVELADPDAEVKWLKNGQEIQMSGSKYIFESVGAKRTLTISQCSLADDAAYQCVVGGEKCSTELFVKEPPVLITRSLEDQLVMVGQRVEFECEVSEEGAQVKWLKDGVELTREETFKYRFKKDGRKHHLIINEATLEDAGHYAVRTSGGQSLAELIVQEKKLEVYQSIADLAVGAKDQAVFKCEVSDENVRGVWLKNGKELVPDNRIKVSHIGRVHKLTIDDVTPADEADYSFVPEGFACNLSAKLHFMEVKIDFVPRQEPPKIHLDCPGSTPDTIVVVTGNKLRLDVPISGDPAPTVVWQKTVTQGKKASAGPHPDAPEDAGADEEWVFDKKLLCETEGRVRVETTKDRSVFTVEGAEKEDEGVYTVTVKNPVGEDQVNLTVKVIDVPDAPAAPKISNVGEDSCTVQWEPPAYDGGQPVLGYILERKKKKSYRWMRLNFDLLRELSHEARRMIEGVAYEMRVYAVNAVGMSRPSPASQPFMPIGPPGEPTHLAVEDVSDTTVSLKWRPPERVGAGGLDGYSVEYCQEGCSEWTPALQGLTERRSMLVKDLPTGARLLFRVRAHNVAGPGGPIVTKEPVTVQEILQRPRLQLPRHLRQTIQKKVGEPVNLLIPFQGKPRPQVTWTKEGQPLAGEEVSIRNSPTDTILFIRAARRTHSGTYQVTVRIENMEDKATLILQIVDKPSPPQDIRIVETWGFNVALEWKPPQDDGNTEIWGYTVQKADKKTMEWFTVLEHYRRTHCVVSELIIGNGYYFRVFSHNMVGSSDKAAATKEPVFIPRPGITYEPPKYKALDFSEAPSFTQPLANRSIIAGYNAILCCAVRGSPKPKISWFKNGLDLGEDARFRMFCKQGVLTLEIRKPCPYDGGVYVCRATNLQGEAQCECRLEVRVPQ

- Kd: 800 nM
Substance: Fhod3 (from UniProt Q76LL6)
